Source: PMC12123872

Assays:
[1] = molecular target: POLR2A fragment Ile1231-Lys1350 (UniProt P24928 1231-1350); test: EMSA
RAD21 = molecular target: T1, RAD21 (UniProt O60216 1-631); test: EMSA
T1 sequence: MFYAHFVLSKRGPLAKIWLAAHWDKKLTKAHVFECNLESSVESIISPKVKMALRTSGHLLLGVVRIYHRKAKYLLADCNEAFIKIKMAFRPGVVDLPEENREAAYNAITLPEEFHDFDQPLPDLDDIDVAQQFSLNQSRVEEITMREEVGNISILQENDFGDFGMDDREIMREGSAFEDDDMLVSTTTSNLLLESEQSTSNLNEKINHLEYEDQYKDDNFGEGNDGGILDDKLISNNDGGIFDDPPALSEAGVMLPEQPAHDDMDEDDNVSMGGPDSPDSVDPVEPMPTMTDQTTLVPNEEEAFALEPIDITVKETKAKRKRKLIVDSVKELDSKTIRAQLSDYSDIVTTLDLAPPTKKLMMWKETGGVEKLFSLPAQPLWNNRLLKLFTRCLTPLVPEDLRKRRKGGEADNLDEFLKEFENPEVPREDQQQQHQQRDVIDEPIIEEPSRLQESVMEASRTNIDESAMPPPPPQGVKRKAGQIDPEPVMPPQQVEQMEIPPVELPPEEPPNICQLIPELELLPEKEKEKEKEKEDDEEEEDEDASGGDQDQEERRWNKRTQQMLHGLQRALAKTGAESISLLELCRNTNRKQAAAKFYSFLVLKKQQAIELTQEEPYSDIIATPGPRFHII

POLR2A fragment Ile1231-Lys1350, sequence (P24928 1231-1350): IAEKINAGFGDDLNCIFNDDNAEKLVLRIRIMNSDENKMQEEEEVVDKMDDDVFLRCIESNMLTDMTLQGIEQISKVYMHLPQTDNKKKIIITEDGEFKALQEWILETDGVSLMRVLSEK

B1: rs1950834-G probe (dsDNA)
DNA 1: TCGGAGTTTGGCCTTCCGGCTCTCCAACTCAGATC
DNA 2: GATCTGAGTTGGAGAGCCGGAAGGCCAAACTCCGA
binding result [1]: binds | binding result (RAD21): binds
